Reference: patent US11911507B2, “Liposomes comprising polymer-conjugated lipids and related uses” (Yissum Research Development Company of the Hebrew …, priority 2011, dated 2024)

How the values were obtained:
[1] = Retention of liposome-encapsulated inulin fluorescein in rat circulation after tail vein injection; type: in vivo; settings: rats, blood samples 5 minutes and 28 hours, versus control nanoliposomes (FIG. 6)
Experimental: FIG. 6: Effect of Pol-PLI on stability of liposomes in rat blood (in vivo): InFl-containing Liposomes were injected to the tail vein of rats, and the retention of drug in the circulation was monitored for 28 hour, by determination of the drug level in blood samples taken 5 minutes and 28 hours after injection, and expressed as percent of the initial, injected InFl amount.

[2] = Size stability of liposomes with different polymer-conjugated lipids on heated incubation, dynamic light scattering; settings: DMPC liposomes, 55° C., day 1 vs day 17, versus control nanoliposomes
Experimental: FIG. 3: Size stability of liposomes with different polymer-conjugated lipids (Po-Ls): Liposomes with or without the indicated Po-L were incubated at 55° C. for 17 days, and the change in their size was monitored using dynamic light scattering. […] DMPC=dimyristoyl phosphatidyl-choline; HyPE=HyPE=Hyaluronic acid (HA)-conjugated Phosphatidyl-ethanolamine (PE); Dex (5)-PE=Dextran (MW 5K)-conjugated PE; Dex(40)=Dextran (MW 40K)-conjugated PE; Heta-PE=Hetastarch (hydroxyethylstarch)-conjugated PE; Hem-PE=Hemaccel (Polygeline)-conjugated PE.
The size of the mixed nano-liposomes was determined by dynamic light scattering.

## Haemaccel-Glutaryl-phosphatidyl-ethanolamine [Hem-PE]
[1]
  release of encapsulated drug from nanoliposomes, in vivo: markedly slowed down the drug release
[2]
  nanoliposome size stability (FIG. 3): more stable nanoliposome size than control nanoliposomes
